Holding throughout (experiment): cell_activity
The target of data set [1] is MafA (mouse L-Maf) (Mus musculus) (UniProt Q8CF90). The following applies: HeLa; +/-2.8.
The target of a further data set is c-Maf (Mus musculus) (UniProt P54843). The note with it: HeLa; +/-12.1.
The target of another data set is MafB (Mus musculus) (UniProt P54841). The following applies: HeLa; +/-10.4.
Sequence of MafB (Mus musculus) (P54841 whole entry): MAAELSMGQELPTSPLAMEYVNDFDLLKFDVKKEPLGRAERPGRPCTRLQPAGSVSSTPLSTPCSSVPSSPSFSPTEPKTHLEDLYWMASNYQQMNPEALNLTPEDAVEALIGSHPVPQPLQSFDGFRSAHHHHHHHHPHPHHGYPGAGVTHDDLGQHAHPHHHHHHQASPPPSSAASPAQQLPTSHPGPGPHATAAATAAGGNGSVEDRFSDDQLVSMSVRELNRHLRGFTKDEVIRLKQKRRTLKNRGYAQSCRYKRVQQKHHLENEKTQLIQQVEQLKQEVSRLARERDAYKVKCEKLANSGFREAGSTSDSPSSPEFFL

Sequence of c-Maf (Mus musculus) (P54843 whole entry): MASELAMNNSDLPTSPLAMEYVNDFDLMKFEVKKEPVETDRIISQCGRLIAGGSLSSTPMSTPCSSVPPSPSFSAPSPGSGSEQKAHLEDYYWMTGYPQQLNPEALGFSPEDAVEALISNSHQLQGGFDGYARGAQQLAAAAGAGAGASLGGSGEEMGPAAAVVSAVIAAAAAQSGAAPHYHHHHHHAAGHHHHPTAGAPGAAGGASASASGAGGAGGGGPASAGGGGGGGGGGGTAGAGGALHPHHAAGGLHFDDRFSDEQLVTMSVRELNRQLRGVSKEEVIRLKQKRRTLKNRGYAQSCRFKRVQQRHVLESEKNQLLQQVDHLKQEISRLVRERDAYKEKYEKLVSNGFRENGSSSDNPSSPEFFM
Sequence of MafA (mouse L-Maf) (Mus musculus) (Q8CF90 whole entry): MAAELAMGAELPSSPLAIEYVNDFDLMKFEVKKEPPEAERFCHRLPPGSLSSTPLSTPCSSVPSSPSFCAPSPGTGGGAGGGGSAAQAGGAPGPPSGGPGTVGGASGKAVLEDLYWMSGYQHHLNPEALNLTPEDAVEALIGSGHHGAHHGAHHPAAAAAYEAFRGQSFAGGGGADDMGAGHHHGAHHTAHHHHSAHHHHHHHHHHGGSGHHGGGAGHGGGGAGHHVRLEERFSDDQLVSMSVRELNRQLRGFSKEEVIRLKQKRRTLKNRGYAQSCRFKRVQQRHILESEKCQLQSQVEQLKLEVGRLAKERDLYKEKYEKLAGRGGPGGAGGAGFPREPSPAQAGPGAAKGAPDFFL

With “rat insulin II promoter -238/+2 (-238 WT LUC)”, the values for the activity (relative luciferase (printed as %)) (in data set [1]; with c-Maf (Mus musculus); with MafB (Mus musculus)) were 13.2, 28 and 23.9, respectively.
